# Laboratory results from the Immune Epitope Database (IEDB).
# pIC50, pKd: −log10 of the molar value.
# How the values were obtained:
# [1] = biological target: HLA-A*02:01; test: IEDB peptide-MHC binding, purified MHC/competitive/fluorescence; ≥ and ≤ were set here for values at or beyond the usual limits of such assays
# [2] = biological target: HLA-A*24:02; test: as above
# [3] = biological target: HLA-B*18:01; test: IEDB peptide-MHC binding, purified MHC/competitive/radioactivity; filed as Kd, often an IC50 or EC50 that approximates it; ≥ and ≤ were set here for values at or beyond the usual limits of such assays
# [4] = biological target: HLA-B*40:01; test: as above
# [5] = biological target: HLA-B*40:02; test: as above
# [6] = biological target: HLA-B*44:02; test: as above
# [7] = biological target: HLA-B*44:03; test: as above
# [8] = biological target: HLA-B*45:01; test: as above
# [9] = biological target: HLA-A*02:03; test: as above
# [10] = biological target: HLA-A*68:02; test: as above
# [11] = biological target: HLA-A*02:01; test: IEDB peptide-MHC binding, purified MHC/direct/fluorescence; filed as Kd, often an IC50 or EC50 that approximates it; ≥ and ≤ were set here for values at or beyond the usual limits of such assays; conditions: source organism: Mammarenavirus lassaense
# [12] = biological target: HLA-A*69:01; test: as above; conditions: source organism: Mammarenavirus lassaense
# [13] = biological target: HLA-A*02:02; test: IEDB peptide-MHC binding, purified MHC/competitive/radioactivity; filed as Kd, often an IC50 or EC50 that approximates it; ≥ and ≤ were set here for values at or beyond the usual limits of such assays
# [14] = biological target: HLA-A*02:06; test: as above
# [15] = biological target: HLA-A*02:01; test: as above; conditions: source organism: Vaccinia virus WR
# [16] = biological target: HLA-A*03:01; test: as above; conditions: source organism: Vaccinia virus WR
# [17] = biological target: HLA-A*11:01; test: as above; conditions: source organism: Vaccinia virus WR
# [18] = biological target: HLA-A*31:01; test: as above; conditions: source organism: Vaccinia virus WR
# [19] = biological target: HLA-A*33:01; test: as above; conditions: source organism: Vaccinia virus WR
# [20] = biological target: HLA-A*68:01; test: as above; conditions: source organism: Vaccinia virus WR
# [21] = source organism: Sudan ebolavirus
# [22] = source organism: Zaire ebolavirus
# [23] = source organism: SARS coronavirus Tor2
# [24] = source organism: Lymphocytic choriomeningitis virus (strain WE)
# [25] = source organism: Mammarenavirus brazilense
# [26] = source organism: Dengue virus 4 Philippines/H241/1956
# [27] = source organism: Lassa virus Josiah
# [28] = source organism: Vaccinia virus WR
# [29] = source organism: Lymphocytic choriomeningitis virus (strain Armstrong)
sequence,measurement,setting,value
PTLTTPENI,pIC50,[1]; [21],≤ 3.57
same,pIC50,[2]; [21],4.27
KQLQQYAES,pIC50,[1]; [22],≤ 3.73
same,pIC50,[2]; [22],4.68
HEFVDEFYA,pKd,[3]; [23],5.52
same,pKd,[4]; [23],5.92
same,pKd,[5]; [23],7.26
same,pKd,[6]; [23],4.73
same,pKd,[7]; [23],5.25
same,pKd,[8]; [23],6.80
TLATISTSP,pIC50,[1]; [22],4.53
same,pIC50,[2]; [22],≤ 4.05
KEPVESCPLM,pKd,[3]; [24],≤ 4.46
same,pKd,[4]; [24],4.93
same,pKd,[5]; [24],6.68
same,pKd,[6]; [24],4.84
same,pKd,[7]; [24],≤ 4.39
same,pKd,[8]; [24],≤ 4.15
EEAARCMRSL,pKd,[3]; [23],5.16
same,pKd,[4]; [23],6.10
same,pKd,[5]; [23],6.74
same,pKd,[6]; [23],6.79
same,pKd,[7]; [23],6.39
same,pKd,[8]; [23],7.07
YEQQTVNST,pKd,[3]; [25],5.95
same,pKd,[4]; [25],≤ 4.27
same,pKd,[5]; [25],7.11
same,pKd,[6]; [25],≤ 4.47
same,pKd,[7]; [25],≤ 4.11
same,pKd,[8]; [25],5.92
NIHTAITQV,pKd,[9]; [26],7.58
same,pKd,[10]; [26],6.82
SEFDRDAAM,pKd,[3]; [23],5.60
same,pKd,[4]; [23],6.68
same,pKd,[5]; [23],6.00
same,pKd,[6]; [23],6.13
same,pKd,[7]; [23],6.27
same,pKd,[8]; [23],4.74
EGIYTEGLM,pIC50,[1]; [21],4.48
same,pIC50,[2]; [21],4.82
DEWSVATFYL,pKd,[3]; [23],7.11
same,pKd,[4]; [23],5.83
same,pKd,[5]; [23],6.92
same,pKd,[6]; [23],6.03
same,pKd,[7]; [23],6.45
same,pKd,[8]; [23],6.00
KEPGVSRELL,pKd,[3]; [25],≤ 4.15
same,pKd,[4]; [25],5.88
same,pKd,[5]; [25],5.97
same,pKd,[6]; [25],≤ 4.15
same,pKd,[7]; [25],≤ 4.15
same,pKd,[8]; [25],≤ 4.15
RLQQELDDL,pKd,[10]; source organism: Homo sapiens,≤ 3.90
IDYRHYSASF,pKd,[3]; [23],≤ 4.50
same,pKd,[4]; [23],≤ 4.35
same,pKd,[5]; [23],5.57
same,pKd,[6]; [23],5.23
same,pKd,[7]; [23],≤ 4.44
same,pKd,[8]; [23],6.01
FVFSTSFYL,pKd,[11],≥ 9.00
same,pKd,[12],8.92
same,pKd,[13]; [27],8.82
same,pKd,[9]; [27],7.29
same,pKd,[14]; [27],7.86
same,pKd,[10]; [27],9.29
LPRPDTRHL,pKd,[15],≤ 4.11
same,pKd,[13]; [28],≤ 4.11
same,pKd,[9]; [28],≤ 4.11
same,pKd,[14]; [28],4.74
same,pKd,[16],≤ 4.24
same,pKd,[17],≤ 4.11
same,pKd,[18],≤ 4.11
same,pKd,[19],≤ 4.11
same,pKd,[20],≤ 4.11
same,pKd,[10]; [28],≤ 4.11
EEILGTVSW,pKd,[3]; [23],7.11
same,pKd,[4]; [23],5.51
same,pKd,[5]; [23],6.42
same,pKd,[6]; [23],8.50
same,pKd,[7]; [23],8.59
same,pKd,[8]; [23],5.81
IEYSDFATSA,pKd,[3]; [23],6.87
same,pKd,[4]; [23],4.78
same,pKd,[5]; [23],6.83
same,pKd,[6]; [23],6.14
same,pKd,[7]; [23],6.18
same,pKd,[8]; [23],6.81
KYNTPCPNC,pIC50,[2]; source organism: Vaccinia virus,4.45
ADNMITEML,pKd,[3]; [29],≤ 4.11
same,pKd,[4]; [29],4.71
same,pKd,[5]; [29],5.85
same,pKd,[6]; [29],4.75
same,pKd,[7]; [29],4.75
same,pKd,[8]; [29],≤ 4.11
PEANMDQESF,pKd,[3]; [23],≤ 4.27
same,pKd,[4]; [23],5.38
same,pKd,[5]; [23],5.00
same,pKd,[6]; [23],5.12
same,pKd,[7]; [23],4.97
same,pKd,[8]; [23],≤ 4.59
